Consider 2 molecules from patent publication US20180002444A1 (ROCKEFELLER UNIVERSITY, published 2018).

The target of assay [1] is T1, recombinant human MERTK (human, UniProt Q12866 26-499, limits assumed).
T1 construct: Analyte in solution in biolayer interferometry; also called hMer
T1 sequence: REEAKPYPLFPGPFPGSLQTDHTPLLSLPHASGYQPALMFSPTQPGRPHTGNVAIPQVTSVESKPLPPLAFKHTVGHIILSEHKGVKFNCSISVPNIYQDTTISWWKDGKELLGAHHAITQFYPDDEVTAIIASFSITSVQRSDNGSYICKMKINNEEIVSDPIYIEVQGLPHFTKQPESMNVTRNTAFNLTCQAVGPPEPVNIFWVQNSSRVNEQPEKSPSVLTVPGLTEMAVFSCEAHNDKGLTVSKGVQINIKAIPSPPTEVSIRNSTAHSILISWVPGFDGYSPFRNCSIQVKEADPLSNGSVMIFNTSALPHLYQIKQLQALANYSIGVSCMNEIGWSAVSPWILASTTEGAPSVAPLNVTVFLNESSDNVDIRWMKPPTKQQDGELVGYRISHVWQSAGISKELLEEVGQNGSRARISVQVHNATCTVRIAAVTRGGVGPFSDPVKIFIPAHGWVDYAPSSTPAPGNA
Put plainly: biolayer interferometry, M6 loaded on AMQ sensor, hMer as analyte, 1:1 model, local fit at 1.25 nM hMer. As to the method:
FIG. 11: M6 binds to MERTK with high affinity. M6 binds to human MERTK with high affinity. A diagram showing antibody binding kinetics for M6 (Mer-M6) against human MERTK (hMer) using biolayer interferometry. Purified M6 was loaded on an AMQ sensor at a concentration of 1 microgram/mL to test binding against analytes in solution. All analytes were prepared at 5 nM with a 2-fold dilution series for a total of 7 concentrations. Kinetic fits were calculated using a 1:1 model, with Local fits for each concentration as well as an overall Global fit.
For orientation: BLI is a label-free optical method that tracks binding on a fibre tip over time.

Assay [2] has as its target T1, recombinant human MERTK. In words: biolayer interferometry, M19 loaded on AMQ sensor, hMer as analyte, 1:1 model, local fit at 5 nM hMer. As to the method:
FIG. 7: M19 binds to human MERTK with high affinity. A diagram showing antibody binding kinetics for M19 (Mer-M19) against human MERTK (hMer) using biolayer interferometry. Purified M19 was loaded on an AMQ sensor at a concentration of 1 microgram/mL to test binding against analytes in solution. All analytes were prepared at 5 nM with a 2-fold dilution series for a total of 7 concentrations. Kinetic fits were calculated using a 1:1 model, with Local fits for each concentration as well as an overall global fit.

B1: antibody M6 (antibody, V domains shown)
VH: QVKLEESGPELKKPGETVKISCKASGYTFTNYGMNWVKQAPGKGLKWMGWINTYTGEPTYADDFKGRFVFSLETSASTAYLQINNLKNEDMATYFCARKSTVVSRYFDVWGAGTTVTVSS
VL: DIVLTQTHKFMSTSVGDRVSITCKASQDVGDAVTWCQQKPGQPPKLLIYWASTRHTGVPDRFTGSGSGTDFTLTINNVQSEDLADYFCQQYRSYPLTFGAGTKLELKR
notes: mouse hybridoma monoclonal antibody; also called Mer-M6
The term Kd denotes the equilibrium constant for the complex coming apart. In general, koff refers to a measure of how fast the partners let go of each other. Regarding B1, in the assay with recombinant human MERTK [1], the Kd stood at 48 pM and the koff came out at 0.00015 s⁻¹.

B2: antibody M19 (antibody, V domains shown)
VH: EVQLEESGPDLKKPGETVKISCKASNYTFTDYSMHWVKQAPGKGLKWVGWINTDTGEPTYADDFKGRFAFSLETSASTAYLQINNLKNEDTATYFCARWFGAMDYWGQGTSVTVSS
VL: DIVITQSHKFMSTSVGDRVSITCKASQDVTNVVAWYQQKPGQSPKLLIYSASYRYTGVPDRFTGSGSGTDFTFTISSVQAEDLAVYYCQQYYRTPRTFGGGTKLEIKR
notes: mouse hybridoma monoclonal antibody; also called Mer-M19
The kon is the rate constant with which the complex forms. For B2, in the assay with recombinant human MERTK [2], the Kd amounted to 248 pM and the on-rate (kon) is 3.83e+06 M⁻¹ s⁻¹.
